Measured values published in paper doi:10.1101/226712.

Target: ClpXP (ClpX6P14) with Cy3-labeled ClpPQ48C, immobilized through biotinylated ClpX6 (Escherichia coli) (UniProt P0A6H1)
Experiment: single-molecule TIRF fluorescence with alternating laser excitation

Row | total dwell time (Δτ, bound and processed) | Substance
1 | 7.5 s | Titin-I27 wild-type with the C-terminal ssrA tag, Cy5-labeled at Cys (domain or fragment)
2 | 7.3 s | Titin-I27 V13P with the C-terminal ssrA tag, Cy5-labeled at Cys (domain or fragment)
